# Laboratory results reported in US20160040149A1, “Compositions Having Dicamba Decarboxylase Activity and Methods of Use” (priority 2013, published 2016).
# Where a chain is given by its changes, count along the chain named.
# B1: 90 (protein)
# chain: MAATIDRVLYLGNATQRRYTSATVSVPRIFGKVALEEHVGTSIWAKYNLTPPANAVVGVLNRPPTLPNTLDTIARLDDINGRLSSMNHSGIGYVIVSLSSPGIQGVHDTALAIKFSTDINDELYLKYANAYPDKFAFFATVPMQDPVAAASELERAVSLLGAKGAAINGYTDIGPPGNSTTRYLDDPINAPFWSKVAALNVPIYLHPRAPPPSQQLVYNYPNNSLSAYPGLVTGGFAYGAETAVHALRLMLSGLFDTHPNIQIILGHAAEGLPFLIHRSDTQLAAEVPGTNGPYKRPLRYYLRNNFYATLSGVRRLSTTQCTLAEMGEERVLFSVDYPFQSNEDAADWFDGVEGMSVETKRKVARGNARRLFNLTVDLDERQIDGDFM
# modifications: Pyrenophora tritici-repentis
# B2: 84 (protein, listed as Mycobacterium rhodesiae)
# chain: MASLIALEEHYAWDPASEGNVVATWLRANNGVAYDRLYDRGPLRIEQMDAAGIDFQILSLFDPGVQDEVDAVRAVDLARRANDDLAESVRANPSRFGGFATLATQQPDAAVAEFDRAVTELGLVGGLINGHCQGRYLDDPAYEALFSRAEALGAPIYLHPTTPHPAVMDAWFAPYVGDGLHLASWGFAAETGTHVLRLIYSGLFDKFPRLQMIIGHLGEMLPFAAYRIDRYYGLGGGGTGHTLQHLPSDYLRNNFHVTTSGNFCSPALDCTLDVMGADRVMFSVDYPMDDNQTGADFLASYPMDDTNRRKVASENALRLFGDRIPAALRN
# B3: 4 (protein, listed as Lactobacillus buchneri)
# chain: MAKVITLEEHFSSQKLGQKMAEVLPKRPIGNVSPKMQDYMQRSLPPEAELEDVTGSRIQWMDQHQISMQILSYGNQNPQNSDPKFAVELTKLANDELAKAVAKAPDRFRAFASLPVSHPTDAAAELKRGVEELGFKGAMLVRPTSQAHPFFDDPFYLPIFEAAANLNVPVYLHPSFPDSQIIDYYYSNGPWDDKVSGILGTAGYGWHTDVGIQTVRLLLSGVFEKYPNLKLISGHWGEFASFALERMDQVMYPETNLSEPISKIYRDHVYVTPSGILTEPQLKFVKDEVGIEHLLYSIDYPYIKPENSGSFIESSPLTDEEKELFAHGNAEKLLQL
# B4: 94 (protein, listed as Bacillus thuringiensis)
# chain: MANRGDSNMKSLVGVIMGSTSDWETMKYACDILDELNIPYEKKVVSAHRTPDYMFEYAETARERGLKVIIAGAGGAAHLPGMVAAKTNLPVIGVPVQSKALNGLDSLLSIVQMPGGVPVATVAIGKAGSTNAGLLAAQILGSFHDDIHDALELRREAIEKDVREGSELV
# B5: 133 (protein)
# chain: MAQGKVALEEHFAIPETLQDSAGFVPGDYWKELQHRLLDIQDTRLKLMDAHGIETMILSLAAPAVQAIPDRRKAIEIARRANDFLAEECAKRPDRFLAFAALPLQDPDAATEELQRCVNDLGFVGALVNGFSQEGDGQTPLYYDLPQYRPFWGEVEKLDVPFYLHPRNPLPQDSRIYDGHPWLLGPTWAFAQETAVHALRLMASGLFDEHPRLNIILGHMGEGLPYMMYRIDHRIAWVKLPPRYPAKRRFMDYFNENFHITTSGNFRTQTLIDAILEIGADRILFSTDWPFENIDHAADWFNATSIAEADRVKIGRTNARRLFKLDGA
# modifications: Dicamba decarboxylase variant
# B6: 134 (protein)
# chain: B5 chain with F84M, M220L, K239H, L240E, F250L
# modifications: Dicamba decarboxylase variant
# B7: 136 (protein)
# chain: B5 chain with D120T, Q133V, M220L, K239H, L240E
# modifications: Dicamba decarboxylase variant
# B8: 137 (protein)
# chain: B5 chain with D120T, K239H, L240E, V312L
# modifications: Dicamba decarboxylase variant
# B9: 135 (protein)
# chain: B5 chain with K46R, Q133V, M220L, N255L, A328D
# modifications: Dicamba decarboxylase variant
# B10: 91 (protein, listed as Botryotinia fuckeliana)
# chain: MASFVCNFGKAALATLLLTPSISAADYTPQETVLNSGRPTFYDASTSIPGKIALEEHVGNDLLNGLYTVPYYPNTNEPQYSDSVYIADVGEKMLDIPSRIANMDAANISISVLTFGGPGIQGVFNATYATYAAGYVNDYLYKNYKNNANYTGRFEFWCSNALQEPSKAATELERCVKELGGVGSFVGGYTNNGGINGTANDIVYLDDPSMEPFLEKVVELDVPIYLHPRMPAPSQLLSVKGYEFLGSSPWGFSSETGAHALRLMVSGTLDKYPTLKIVLGHCGEGLPFFLPRIDQRLRHFKKELFNNTLTMEEYWLRNFYVTTAGVQDAGTLVDTIKRTGEDRVMFSVDYPFEDTVEIAGWFDRLEMNTLTKTKLAYENAKALLKLTCYVDAEKRPRIFNKHHVDDIIKHTHSPCIWTLFH
# B11: 85 (protein, listed as Maritimibacter alkaliphilus)
# chain: MAADRKPGLVSVEEGFMIPEVVAELSRIAGGVPSMKSGPIAGPFMDDLLDIGKGRVARMDADGVAVQILALAAPGVQKFDPDTALALSRLTNDRLAEAIAAHPARFGGLAAAPPQAAREGAKELDRAITTLGLNGLIVNSHTNDLYLDDPSFWPLLEAAEALDVPVYLHPREPAAGIEGGLMAMTGFTVGWAYAVETGTHLLRMIAAGVFDRFPRLRIVLGHLGEMIPFMLDRIDNRYPFEMGVTGAKPLPRKPSDYFRDHVTVATSGMNFNAPMRAAIEVLGADKVMFAADYPMERQDEEVAKFAALDLTPDERKRIGEDNARRVFGL
# B12: 92 (protein, listed as Chitinophaga pinensis)
# chain: MARIVTLEEHVSFPEMTALLPEEILKNRKQSGAALQMQEKLADITGERLTSMKAAGISMQVLSVENTDVYLLPDSLAPAFAAKYNDLLADKISSHSDAFAAFAMLPMTVPEAAADELERAVKTHGFCGAMIKGLINGVFLDAPKFAPVFACAEKLGVPLYIHPGIPPKEVIDAYYSNVGDTKGPNEAIACYGWGWHSETAIHILRLLAAGIFDKYPQLNIIIGHMGEMLPMMWERSNRVFQPGNNGKNQRTLIETFRKQLYITTSGIFTQPPLQIAIDTIGIDNILFSIDYPFSSNQMGIDFLTKAALPAEQLAKMAHGNADRILKF
# B13: 87 (protein, listed as Novosphingobium sp.)
# chain: MASDIATAADLQTGGRQGYLRIATEEAFATRDQIDVYLRMVRDGTADRGMTSLWGFYAQSPSARATQIIERLLDLGEQRLADMDAAGIDKAVLALTSPGVQPLLDMEEARRIAGNANDRLAERCAAHPDRFIGMTAVAPQDPQWSAREILRGATQLGFKGVQINSHTQGRYLDEPFFDPIFRALGDVGQPLYIHPGTPPDSMIGPLLDAGLDGAIYGFGVETGMHLLRLITAGIFDRYPDLQIMVGHMGEALPYWLYRLDYMHQAGIRSQRYERMRPLKRTIAGYFRSNVLVTCSGMAWEPAIQFARQVMGEDRVMYAMDYPYQYEADEVRALDVMDLSPESKRKFFQTNAERWFDL
# B14: 88 (protein, listed as Starkeya novella)
# chain: MARKIALEEHFTTPELAGKYVARPTQSDALFADIERRLADFDELRLEMMDRAEIDLMVLSVTTPGVQGVRDTGEAIRLARGANDFLAREVQKRPSRYAGFAHLAMQDAEAAATELERAVRELGFRGALINGQTNGHYLDEDQYAPFWERVQELDVPVYLHPGNMADSPAMFAHRPELGGPIWAWTAETAAHALRLVFGGTFTRFPGAKVILGHMGETLPFLLWRLDSRREFDLGEKLAPDALPSAIIKRNIAVTTSGVCDPAPLVAALQALSDDNVMFSVDYPYEDPQLASKFIETAPIGEETRAKVCHGNAERLLGL
# B15: 93 (protein, listed as Mucilaginibacter paludis)
# chain: MAKYGKHITINKNMRIVTLEEHISFPEMADQIPKAALGSFGRSEAMQRIAPKLADITGERLKSMDANGISMQVLSVDSSGVNLLSPQQGPAFATQYNDLIANRIAGFEKRFTAFAHLPMTAPFAAADELERAVKEHHFCGAMIRGLTGDQFLDHPQFAPIFERAQKLDVPIYLHPGLPPKGVADIYYSGLPNYSGMAEALACYGWGWHSETALHVLRLLFSGIFDQYPKLKLVIGHMGEMLPMMMARSEKAFKPGNGGANVRTLTDTFRSQVYLTTSGFFTQPPLKIALDTFGIDHVMFSVDYPFSTNEMGIEFLNEIDLPDEEVARIAHGNADKLLNLKA
# B16: 89 (protein, listed as Erwinia billingiae)
# chain: MATNRRDFLKNATAVMAGSTVFAGSSHFASAAAVEPAAVQPPRRIIALEEHFMLPEFVGYLHETQQNLRNGLVDKVVTPLSDFGKGRLEIMDKNGVDFAVLSLSGPGVQAEPDRVKAVRLARYANDKLATEMQKNPRRYGGFAHLAMQDPLAAANELERCVKQLHMQGGMINGETDGLYLDDRRYDVFWERVEALNVPIYIHPGNPPDYPHMFAGHPEMWGPVWSWAVETCSHALRLIFSGTFDRYPGARVILGHMGETLPIQLWRLDSRYQIANQTFAIKHPPSWYAKKNITITTSGVCNDAALRCALDSMGSENVMFSIDYPFESTEIAVNWLKTANITEQERNAVAWGNATSILRLGA
# B17: 5 (protein, listed as Staphylococcus aureus)
# chain: MAQNNMEANQMKSITFEEHYVIEDIQKETMNAISADPKGVPMKVMLEGLEKKTGFTNADELSHHDERIQFMNNQDVQIQVLSYGNGSPSNLVGQKAIELCQKANDQLANYIAQYPNRFVGFATLPINEPEAAAREFERCINDLGFKGALIMGRAQDGFLDQDKYDIIFKTAENLGVPIYLHPAPVNSDIYQSYYKGNYPEVTAATFACFGYGWHIDVGIHAIHLVLSGIFDRYPKLNMIIGHWGEFIPFFLERMDEALFAEHLNHPVSYYFKNNFYITPSGMLTKPQFDLVKKEAGIDRILYAADYPYIEPEKLGVFLDELGLTDEEKEKISYTNGAKLLGLSSNN
# B18: 86 (protein, listed as Sphingopyxis alaskensis)
# chain: MALGASVASREASAQMAKAPMRKIATEEAFATPELAKAWLEIARSEPNSSLDIPTGILSIFDNPRPGSNQDRFRRQLLDVDAERIRDMDEAGVDMQLLSVTIPGVQIFEPARAGELAVTTNDHLAAAIARRPTRFAGLACFAPHDPVQATREMERAVNALGLKGFIVNSHTQDLYLDDPRFAPVLEAAQSLDCPIYLHPRAPSNGMAAPFRDYSMGGSIWGFGVEAGTHAVRMILSGVFDRYPRLRIVLGHMGEALPFWMWRLDHMAARRAKDGRMKPLSLAPSEYFKRNFAVTTSGFESPDVLDLVIKVAGIENIMWAIDYPYESSRDAVTFIEGADLTASQRASIFHRNAVRHFRLS
# How the values were obtained:
# [1] = Saturation mutagenesis of SEQ ID NO:109: dicamba decarboxylation activity of point mutants (CO2 released), fold of backbone (Tables 7, 8, Megatable 1); settings: decarboxylation activity (CO2 released) of point mutant vs unmutated backbone protein; backbone SEQ ID NO: 109
# [2] = DNA shuffling libraries: 14CO2 capturing assay in 384-well format, fold activity of backbone (Megatable 2); settings: relative to backbone SEQ ID NO: 133 (DDEC0201)
Molecule,Fold Activity [1] [fold],Fold Activity [2] [fold]
B1,1.7,
B2,1,
B3,1,
B4,1.5,
B5,1.3,1.0
B6,1.5,1.1
B7,1.2,1.4
B8,1.1,1.4
B9,1.5,1.3
B10,1.6,
B11,1.4,
B12,1.7,
B13,1.4,
B14,1.3,
B15,1.6,
B16,3.1,
B17,0.8,
B18,1.4,
